From US20240059797A1 (GRITSTONE BIO, published 2024)
Where a chain is given by its changes, count along the chain named. Blank lines part the entries; values can stand above or below the binder they belong to.

Assays:
[1] = target: HLA-A*02:01_… (HLA-PEPTIDE target G7), recombinant biotinylated complex (human, enzymatically biotinylated (BirA)); experiment: phage panning, scFv ELISA
Experimental: Phage library screening was carried out according to the overall screening design described above. Three to four rounds of bead-based panning were performed to identify scFv binders to each peptide-HLA complex. For each round of panning, an aliquot of starting phage was set aside for input titering and the remaining phage was depleted three times against Dynabead M-280 streptavidin beads (Life Technologies) followed by a depletion against Streptavidin beads pre-bound with 100 μmoles of pooled negative peptide-HLA complexes. For the first round of panning, 100 μmoles of peptide-HLA complex bound to streptavidin beads was incubated with depleted phage for 2 hours at room temperature with rotation. Three five-minute washes with 0.5% BSA in 1×PBST (PBS+0.05% Tween-20) followed by three five-minute washes with 0.5% BSA in 1×PBS were utilized to remove any unbound phage to the peptide-HLA complex bound beads. To elute the bound phage from the washed beads, 1 ml 0.1M TEA was added and incubated for 10 minutes at room temperature with rotation. The eluted phage was collected from the beads and neutralized with 0.5 ml 1M Tris-HCl pH 7.5. The neutralized phage was then used to infect log growth TG-1 cells (OD₆₀₀=0.5) and after an hour of infection at 37° C., cells were plated onto 2YT media with 100 μg/ml carbenicillin and 2% glucose (2YTCG) agar plates for output titer and bacterial growth for subsequent panning rounds.
96-well and/or 384-well streptavidin coated plates (Pierce) were coated with 2 μg/ml peptide-HLA complex in HLA buffer and incubated overnight at 4° C. Plates were washed three times between each step with PBST (PBS+0.05%). The antigen coated plates were blocked with 3% BSA in PBS (blocking buffer) for 1 hour at room temperature. After washing, scFv PPEs were added to the plates and incubated at room temperature for 1 hour. Following washing, mouse anti-v5 antibody (Invitrogen) in blocking buffer was added to detect scFv and incubated at room temperature for 1 hour. After washing, HRP-goat anti-mouse antibody (Jackson ImmunoResearch) was added and incubated at room temperature for 1 hour.

[2] = target: HLA-A*01:01_… (HLA-PEPTIDE target G10), recombinant biotinylated complex (human, enzymatically biotinylated (BirA)); experiment: BLI, pHLA on sensor, Fab titrated, 1:1 model
Experimental: Binding affinity was assessed by bio-layer interferometry (BLI) using an Octet Qke (ForteBio). Briefly, biotinylated pHLA complexes in kinetics buffer were loaded onto streptavidin sensors for 300 seconds, at concentrations which gave the optimal nm shift response (approximately 0.6 nm) for each Fab at the highest concentration used. The ligand-loaded tips were subsequently equilibrated in the kinetics buffer for 120 seconds. The ligand-loaded biosensors were then dipped for 200 seconds in the Fab solution titrated into 2-fold dilutions. […] The dissociation step in the kinetics buffer was measured for 200 seconds. Data were analyzed using the ForteBio data analysis software using a 1:1 binding model.

[3] = target: T1, HLA-A*01:01_… (HLA-PEPTIDE target G2), recombinant biotinylated complex (human, enzymatically biotinylated (BirA)); experiment: BLI (ForteBio Octet HTX), biotinylated G2-pHLA captured on streptavidin SAX biosensor, bispecific in solution, 1:2 Fit
T1 construct: also called G2-pHLA

[4] = target: T1, HLA-A*01:01_… (HLA-PEPTIDE target G2), …; experiment: BLI (ForteBio Octet HTX), biotinylated G2-pHLA captured on streptavidin SAX biosensor, bispecific in solution, 1:1 Fit
Text: The biosensors were then dipped in assay buffer for a baseline. […] The biosensors were finally dipped into wells containing assay buffer to measure the dissociation rate for another 50 seconds. Referencing was completed by having a biosensor with no immobilized ligand dipped into analyte. Kinetic data was processed with Octet™ software using a 1:1 kinetic model with errors within 10%, X² below 3, and R² above 0.9.

B2: G10(1B07) Fab (Fab, V domains shown)
VH: QVQLVQSGAEVKKPGASVKVSCKASGYTFTSYYMHWVRQAPGQGLEWMGIIHPGGGTTSYAQKFQGRVTMTRDTSTSTVYMELSSLRSEDTAVYYCARDKVYGDGFDPWGQGTLVTVSS
VL: DIQMTQSPSSLSASVGDRVTITCRASQSISRWLAWYQQKPGKAPKLLIFDASRLQSGVPSRFSGSGSGTDFTLTISSLQPEDFATYYCQQAEAFPYTFGQGTKVEIK
notes: Fab
Kd [2]: 37.5 nM | koff [2]: 0.00615 s⁻¹ | kon [2]: 165000 M⁻¹ s⁻¹

B4: 4-G2(1H11)-10AAL hOKT3a (bispecific antibody)
chain: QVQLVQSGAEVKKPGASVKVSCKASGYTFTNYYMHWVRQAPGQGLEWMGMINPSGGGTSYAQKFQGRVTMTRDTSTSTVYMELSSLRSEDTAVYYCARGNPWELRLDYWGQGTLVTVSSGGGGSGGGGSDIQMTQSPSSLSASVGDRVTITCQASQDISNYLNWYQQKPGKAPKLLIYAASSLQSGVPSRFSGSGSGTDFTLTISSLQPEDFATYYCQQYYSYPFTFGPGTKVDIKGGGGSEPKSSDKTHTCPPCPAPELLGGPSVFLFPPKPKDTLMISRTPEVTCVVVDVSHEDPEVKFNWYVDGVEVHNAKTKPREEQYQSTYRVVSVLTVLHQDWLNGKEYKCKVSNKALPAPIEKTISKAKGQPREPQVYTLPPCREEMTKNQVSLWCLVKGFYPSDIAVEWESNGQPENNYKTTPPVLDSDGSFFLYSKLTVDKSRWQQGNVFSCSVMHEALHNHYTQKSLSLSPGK
heavy: QVQLVQSGAEVKKPGASVKVSCKASGYTFTNYYMHWVRQAPGQGLEWMGMINPSGGGTSYAQKFQGRVTMTRDTSTSTVYMELSSLRSEDTAVYYCARGNPWELRLDYWGQGTLVTVSSGGGGSGGGGSDIQMTQSPSSLSASVGDRVTITCQASQDISNYLNWYQQKPGKAPKLLIYAASSLQSGVPSRFSGSGSGTDFTLTISSLQPEDFATYYCQQYYSYPFTFGPGTKVDIKGGGGSGGGGSQVQLVQSGAEVKKPGASVKVSCKASGYTFTRYTMHWVRQAPGQGLEWMGYINPSRGYTNYNQKFKDRVTLTTDKSSSTAYMELSSLRSEDTAVYYCARYYDDHYSLDYWGQGTLVTVSSASTKGPSVFPLAPSSKSTSGGTAALGCLVKDYFPEPVTVSWNSGALTSGVHTFPAVLQSSGLYSLSSVVTVPSSSLGTQTYICNVNHKPSNTKVDKRVEPKSCDKTHTCPPCPAPELLGGPSVFLFPPKPKDTLMISRTPEVTCVVVDVSHEDPEVKFNWYVDGVEVHNAKTKPREEQYQSTYRVVSVLTVLHQDWLNGKEYKCKVSNKALPAPIEKTISKAKGQPREPQVCTLPPSREEMTKNQVSLSCAVKGFYPSDIAVEWESNGQPENNYKTTPPVLDSDGSFFLVSKLTVDKSRWQQGNVFSCSVMHEALHNRFTQKSLSLSPGK
light: DIQMTQSPSSLSASVGDRVTITCSASSSVSYMNWYQQKPGKAPKRLIYDTSKLASGVPSRFSGSGSGTDFTLTISSLQPEDFATYYCQQWSSNPFTFGQGTKLEIKRTVAAPSVFIFPPSDEQLKSGTASVVCLLNNFYPREAKVQWKVDNALQSGNSQESVTEQDSKDSTYSLSSTLTLSKADYEKHKVYACEVTHQGLSSPVTKSFNRGEC
notes: format 4 diabody; also called G2(1H11)-hOKT3a Format 4 with shortened linkers; DAB
Kd [3]: 301 nM | koff [3]: 0.0746 s⁻¹ | kon [3]: 248000 M⁻¹ s⁻¹ | Kd [4]: 6.35 nM | koff [4]: 0.00608 s⁻¹ | kon [4]: 958000 M⁻¹ s⁻¹

The next lines start with the values.

binding result [1]: binds
B1: G7(1G10) scFv (scFv, V domains shown)
VH: EVQLLESGGGLVQPGGSLRLSCAASGFTFSSYAMHWVRQAPGKGLEWVSGISGSGGSTYYADSVKGRFTISRDNSKNTLYLQMNSLRAEDTAVYYCASDYGDYRGQGTLVTVSS
VL: B2 VL with S28D, S30R, R31N, W32D, A34G, F49Y, D50A, R53S, E92N, Y96P

binding result [1]: binds
B3: G7(1B04) scFv (scFv, V domains shown)
VH: QVQLVQSGAEVKKPGASVKVSCKASGYTFSNYYIHWVRQAPGQGLEWMGWLNPNSGNTGYAQRFQGRVTMTRDTSTSTVYMELSSLRSEDTAVYYCARDLMTTVVTPGDYGMDVWGQGTTVTVSS
VL: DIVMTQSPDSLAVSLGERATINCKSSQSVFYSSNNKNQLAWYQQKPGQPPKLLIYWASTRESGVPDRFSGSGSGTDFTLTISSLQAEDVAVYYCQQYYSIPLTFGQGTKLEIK

binding result [1]: binds
B5: G7(1C06) scFv (scFv, V domains shown)
VH: QVQLVQSGAEVKKPGASVKVSCKASGGTFSNYGISWVRQAPGQGLEWMGIINPGGSTSYAQKFQGRVTMTRDTSTSTVYMELSSLRSEDTAVYYCARDGYDFWSGYTSDDYWGQGTLVTVSS
VL: EIVMTQSPATLSVSPGERATLSCRASQSVSSSNLAWYQQKPGQAPRLLIYGASTRATGIPARFSGSGSGTEFTLTISSLQSEDFAVYYCHHYGRSHTFGQGTKVEIK

Kd [2]: 428 nM | koff [2]: 0.111 s⁻¹ | kon [2]: 477000 M⁻¹ s⁻¹
B6: G10(4E07) Fab (Fab, V domains shown)
VH: QVQLVQSGAEVKKPGSSVKVSCKASGYTFTGYYMHWVRQAPGQGLEWMGRISPSDGSTTYAPKFQGRVTITADESTSTAYMELSSLRSEDTAVYYCARDMGDAFDIWGQGTTVTVSS
VL: not shown
notes: Fab
